The results in this text go back to publication doi:10.1101/2022.08.03.502687 (bioRxiv, 2022).

Positions count from the first letter of the chain named. Names may count otherwise.

This data set deals with the molecule itself. In words: single-molecule photobleaching subunit capture.

B1: CLC-ec1 'WT' background (C85A/H234C) treated with glutaraldehyde (natural protein)
chain: MKTDTPSLETPQAARLRRRQLIRQLLERDKTPLAILFMAAVVGTLVGLAAVAFDKGVAWLQNQRMGALVHTADNYPLLLTVAFLASAVLAMFGYFLVRKYAPEAGGSGIPEIEGALEDQRPVRWWRVLPVKFFGGLGTLGGGMVLGREGPTVQIGGNIGRMVLDIFRLKGDEARHTLLATGAAAGLAAAFNAPLAGILFIIEEMRPQFRYTLISIKAVFIGVIMSTIMYRIFNCEVALIDVGKLSDAPLNTLWLYLILGIIFGIFGPIFNKWVLGMQDLLHRVHGGNITKWVLMGGAIGGLCGLLGFVAPATSGGGFNLIPIATAGNFSMGMLVFIFVARVITTLLCFSSGAPGGIFAPMLALGTVLGTAFGMVAVELFPQYHLEAGTFAIAGMGALLAASIRAPLTGIILVLEMTDNYQLILPMIITGLGATLLAQFTGGKPLYSAILARTLAKQEAEQLARSKAASASENT
modifications: Cy5-maleimide on H234C; cross-linked with glutaraldehyde (residues not stated)
With B1, the binding result is “binds”.

B2: CLC-ec1 R230C/L249C on the 'WT' background (C85A/H234C), disulfide cross-linked (natural protein)
chain: B1 chain with R230C, L249C
Take B2: the binding result is “binds”.
